Reference: a protein production outcome set (Wang et al. 2014)

Assay: label from the status in PepcDB records

MFLTVKLLLGQRCSLKVSGQESVATLKRLVSRRLKVPEEQQHLLFRGQLLEDDKHLSDYCIGPNASINVIMQPLEKMAL
protein production: failed

MFMIKVITPETNHPKEGGILSALVSIYNCTIHIRKPRFTADQYKKYLHDHNQLLSHFVLHEHHSLAKEFPVMGVHLKELDRINPAQVHPDIKIISTSIHSIADAGNLSHPFEYIFYSPLFQSISKENYGTNNSLADLKKTVSELKEQTGIPIIGLGGIYEANIDLVKKSGFDGAALLGAVWVQSDPLAAFGRIASMILEHHHHHH
protein production: failed

MFNDWRRVLALSGKALGAILFCEAVGLLAAWVTQTSVTTWYPTLTKPSFTPPNWVFAPAWTTLYALMGVAAFLVWRCGPDRTRVRTALTAFGLQLAANAGWSFAFFGARSPALGLVVILGLWGLLAWTMDRFFRVRPVAGWLLVPYLAWVTYALALNAAIWGLN
protein production: failed

MFNNKQKQLVIILISLLLTFTSQASLASDTTILNEIINPQLIHIYEWETLSVYEKENVSQKPANWDSAESFYGSTRLSLLGEERFYRAKFTIGWHHRTRNLAISVGPLKGTDEVYINGFRVDDSGSGDYDLFFQNSYRVYRLPRNKTWFSWFNYTKENELLIKLSSSKRGQVLDSDYVEIGDYETLALKSRDFDSTIKTSQGSAIALLFMLILFIIFLHVNQYNKKSNTLFGFFIFYLSLSIASTSLFLNGPEYDGELLLSLSACLDLVSLVVFIKIVSDKFDLNISHYKRNEKSIKIFGTVSVLCILIFSDIFFAQKWFNLIIYIVMLLVVISTIHQLVIGRNIGGANYSIVSALMIMFLGVAFNGLWGGNSWPISPYHIGAILSSIFLLYSIAQDFKKMTLSMHAMSSRLVNIREIERARLTRDIHDGVGQGLATIRLFITMNINNFEPQLGISLKNEVDQTSNTLKSVIRNLKPIEMDDGNPSEAIIELARHLCEIAQIEMKVIHSDKADMNTENAYQLYRIGQEALNNSIKHSCCTLITIDIQRDRDRLIMSISDNGKGIKKQVENLGYGLSSMQERALLIGGQLRINNAIDSGVQVFLEVPIND
protein production: failed

MFPHLALLNAHKRMHTDGEQQQQQQHNAQAGGDSIAVVSAQGLVQAQNIIGNGQMGQIQIVSSDTLEPVQQSVMQQQQHESKASKCINCGSSMLQQSKRKGPKQVRCESCMQAEQTAQQQQQLFVAQDG
protein production: failed

MFQPHLPVRLPCYDLAPITSFTLGRSLRLRTSGTPGFHGLTGGVYKARERIHRAMADARLLANPASRSRVADFDPN
protein production: failed

MFQTQFSPINFRETKIIKANYKRFHEIRAKVQTETNDALNENEISAIKKSGFRGHVDISYKSSASFSPLPLQQYFTTMKKIVMRKLRSPVSHCMLVTKCQTTLQIGYIDWMESKSLSNIID
protein production: failed

MFRKLAAECFGTFWLVFGGCGSAVLAAGFPELGIGFAGVALAFGLTVLTMAFAVGHISGGHFNPAVTIGLWAGGRFPAKEVVGYVIAQVVGGIVAAALLYLIASGKTGFDAAASGFASNGYGEHSPGGYSMLSALVVELVLSAGFLLVIHGATDKFAPAGFAPIAIGLALTLIHLISIPVTNTSVNPARSTAVAIFQGGWALEQLWFFWVVPIVGGIIGGLIYRTLLEKRD
protein production: not failed

MFRRLILRQAAAVAAESKIACHHTVHGFEQRRGLHSRNEKAMEYVAKGWSAIKEVERVIDYCELNDRRLIPLLRGAKENFELALEADNLNTHARYWLSKLHLKYHVPGACKAVGAALLVEAADMGNADAQYELGCRLRVENDHVQSDQQAFHYIENAVDQLHPGALYLLGIVYLTGDCVKQDVDSAIWCFHRASEKGHAGAAIAYGSLLLRGVQVPESLTKLNVVGVSPPKRARKNLENPEMNPLEMAKEQFQIAARAGCDLGLKWLQRVEQEEKLLMREQDNECAYV
protein production: failed

MFRRTLPVLAAAVGLAAAAAGPATADDVPADRLPGHRVLDVMTFNIHHAQGTDDVLDLRRVANVIRKSGADVVGLQEVDKHYSARSDWADQPAELAELLGYHVVFGANIDNSPPAPGGHRVQYGTAILSRYPITASDNTWLYKSPGQEQRGLLHATLDVHGKKVEFYNTHLAAGSQADRLQQTAQVVDLIGTRKPGILVGDFNALPAAPESRPLQNAYTDAWAKSLHARGDGATYPAQSPTERIDLIYATRRVTPLVAQVLKDDPAASDHRPLLGKVLV
protein production: failed

MFRVFILFGFGFYLMQLHISGDISKYINMKYAYLSFSAMIAAFLLAIIQLIMVFRDEDIGAKTEHMGHTHDGENTILKKIMVYGLLSYALIAGFLFPVATLDSTIVSAKGFHFPKNNAAGDDPYAQNQFLRPDTSGYFGETDYEKMMAKEKAEIIDQNPIKVNDSNYLMTMEILYNYPGEFTGKQIEFTGFVYNDEVTKDNNLFLFRFGIIHCVADSGVFGMLVQMPEKTNLKNDTWLTVKGTITQEYYSPFKMNIPSVQVESYKEVAKPKSVYVYRKY
protein production: failed

MFSAKKRDKCIGEMSEKQLDLLVIGGGITGAGIALDAQVRGIQTGLVEMNDFASGTSSRSTKLVHGGLRYLKQFEIKLVAEVGKERAIVYENAPHVTTPEWMLLPIFKDGTFGKFSTSLGLKVYDYLADVRKDERRYMLNEKQTLEKEPLLRKENLKGGGIYVEYRTDDARLTLEIMKEAVARGAVALNYMKVESFIYDQGKVVGVVAKDRLTDTTHTIYAKKVVNAAGPWVDTLREKDRSKHGKYLKLSKGVHLVVDQSRFPLRQAVYFDTESDGRMIFAIPREGKTYIGTTDTFYDKDIASPRMTVEDRDYILAAANYMFPSLNLTADDVESSWAGLRPLIHEEGKKASEISRKDEIFFSDSGLISIAGGKLTGYRKMAERTVDAVAQGLNVNEPCTTAAIRLSGGLAEGAQGFPRFLDEASRKGAKLGFDADEVRRLAKLYGSNVDHVLNYAYEGKEEAEHYGLPALLLGQLQYGVEQEMVATPLDFFVRRTGALFFNISLVHQWKEAVLRWMAEEFSWTEEEKTRFQNELETELKMAVDPLFQVEPTTVLEHHHHHH
protein production: not failed

MFSEVEMARDVAICAKHLNGQSPHQPILCRLLQDLIHEKACREHGFYLGITALKSIGNNKNNNIDNENNHQAKILTFPVSFTCRTFLPARGDILQGTVKKVLWNGAFIRSGPLRYAYLSLLKMPHYHYVHSPLSEDEKPHFQKDDLSKIAVGVVVRFQVLAVRFKERPHKRRNDYYVLATLEGNGSFGPISLTGSDEPYM
protein production: failed

MFSFFSRWYQERFSDPQAVTLLAILVGLALVLYFAGGLLAPLLVALVLAFLLEWPVAQMLKLGINRTTAASLVLIIFLGIVVLLTFGLIPSVWRQGVSLMTDLPSMIDKGLQTVQGLATQYPQFISVEQLNLMVAELKKLLDTQHVLDIAKQLIGYSASLLVLMVYAILVPLLVFFFLKDKDQLISGSKRFFPTNRQLARKVWFEMHQQIFNYIRGKVIEIVIVGVASYILFAFMGLSYSALLGVLTGLSVLIPYVGATLVTLPIMLVAFFQWGFSSEFGYLMLGYGIIQALDGNVLVPILFSDAVDLHPVIIIAAVLVFGGLWGVLGVFFAIPLASLVKAVINAWPKTEIEPSASAPPQK
protein production: failed

MFSIVFPVIAPVLIVVAVGFGWARAGRPFDTATVSALGLGLGTPFLLTDVLMSANIAADALAAMGLAALLTLAGMAVGGALTLRLLKLPQAVFLPSMIFGNTGNIALPLCLFAFGDEGLALSIGYFTVVIVIQFSATALISSGERPVPVILRNPVIWTLLVVGTLKAGGIALPGWLADTAHMVGGMCIPVMLLALGVSLARLKVAGLGVALLLGAVKIALGVALGYATVLALDLHGAARGVVLIQSAMPPAVFNYLFAARYNQRPEEVAGLVIVSTGLSVLTMPLLLWGAMADM
protein production: failed

MFSKLKKTWYADDFSYFIRNFGVFTLIFSTMTLIILQVMHSSLYTSVDDKLHGLSENPQAVIQLAINRATEEIKDLENARADASKVEIKPNVSSNTEVILFDKDFTQLLSGNRFLGLDKIKLEKKELGHIYQIQVFNSYGQEEIYRVILMETNISSVSTNIKYAAVLINTSQLEQASQKHEQLIVVVMASFWILSLLASLYLARVSVRPLLESMQKQQSFVENASHELRTPLAVLQNRLETLFRKPEATIMDVSESIASSLEEVRNMRFLTTSLLNLARRDDGIKPELAEVPTSFFNTTFTNYEMIASENNRVFRFENRIHRTIVTDQLLLKQLMTILFDNAVKYTEEDGEIDFLISATDRNLYLLVSDNGIGISTEDKKKIFDRFYRVDKARTRQKGGFGLGLSLAKQIVDALKGTVTVKDNKPKGTIFEVKIAIQTPSKKKK
protein production: failed

MFSLREYRNKADRLADFLPWAALVAPGVVLNKDGSFQRSARFRGPDLDSATPAELIATTARLNSALRRLGSGWAIFVEAVRRPAHDYPESDFPDAASALVERERAAQFAEEGAHFESAYYLTLVWMPPAEDAARAESWLYEGKAHQGVQARELLELFSDRTDRLLRLIEGFVPEAAWLDDSETLTYLHSCISTRNHRVRVPETPMHLDALLADEPLTGGLEPRLGRAHLRTLTVVGFPSATFPGILDELNSQGFAYRWSTRAIMLDKTDAAKLLGKIRRQWFAKRKSVAAILKEVMTNEASALLDSDASNKAADADAALQELGSDLQGMAYVTATVTVWDEDAAMAAEKLRLVEKVIQGRDFTVIVEGMNALEAWLGSLPGHVYANVRQPPISTLNLAHMIPLSAVWAGPEWDAHFRAPPLFYARTEGSTPFRFALHVGDVGHTLIVGPTGAGKSVLLALMALQFRRYDRAQIFAFDFGGSIRAAALACGGDWQDLGTSLAGDGAGAVMLQPLARIDEPAERNWAAEWLQAVLTGEGVTVDPATKEHLWSALTSLSTALVAERTLTGLAVLLQSQALKQALAPYCIGGPFGRLLDAEAEQLGAGKFQAFETEGLTGSAAAPAVLSYLFHRIEGRLDGSPTLIIIDEGWLVLDSPAFAAQLREWLKTLRKKNASVVFATQSLADIETSAIAPAIIESCPTRIFLPNERAIEPQILSVYRRFGLNDRQIEIIARAAPKRDYYCQSARGNRLFELGLGEVALAFAAASSKTDQLAISELTETHGTGGFARAWLRHRGLAWAADMLPPDPVPPTRSDQAAGQPKE
protein production: failed

MFSLRSALILALLIIASLVNTKYSLPLALLVVGLTYLLDEQRLLPYASIVSFLIPMVYPLETSYVPMIYALSSIGILASKYSRLLSSVLIILGVSILPLGDVQKYLILYLTAFLLLGVDIRGTLGGGIIMLILATQGYVPYDLAFYTILFGVLSLTTLYKIKVTRYHAIAILSAIFPLLYSYFPLPSFLVSLGSALVFPPALFSTSILLYVEGFKQGIYGLLLILLSLVYNRYEKYFRTISMVLVSAGLSIFSSVFPPLILILIVIYFLEKGKVLTYSQYFLIPLSLYLLIQGSYQSLVYSSIALIIVSTLRMILRTTDSNRFKKLVKLMNARIVGGIISLLIEIILFFIALQYLVFPLSYVALTLSVIYAVFIFRERNAFVHFSLSAVLALFFNPVFALGGIKLKDSLNVIVVALTIIMGILFSHTLYFSIISVFLSVSYLLQKFDIHDLVPLSVISIVSIIPGITWTYVLPPILLSFSYLITKKYSYELGLSSMFCIIILIHYLIV
protein production: failed

MFSPQASAAYDDLHEGYATYTGSGYSGGAFLLDPIPSDMEITAINPADLNYGGVKAALAGSYLEVEGPKGKTTVYVTDLYPEGARGALDLSPNAFRKIGNMKDGKINIKWRVVKAPITGNFTYRIKEGSSRWWAAIQVRNHKYPVMKMEYEKDGKWINMEKMDYNHFVSTNLGTGSLKVRMTDIRGKVVKDTIPKLPESGTSKAYTVPGHVQFPELEHHHHHH
protein production: not failed

MFSRVPAKSIARFRCVSESIHRRPDVTEQSLTKSMSRPRLLFALEVNKDLLFFSSPQPQNPYDNSSLVATPYKRFPKYLPTRICTTLGGLVFLQKWLRKKTRVICNPVSGDYITLPKVKATGVGESYFGFDPITKQFKVLCMTWSRYGTPNTHQVLTLETGKRLWRTIQDPILPHYRSFDRICINGVLYYGADFEESQSSKIVCFDFRFEKFSFINIADEGMFRGSYKWTLFNYKGKLGAHQYSRNGELVLWVLEDAENHKWSKSICILPPIVHNSRIVGVTGTGEIVFSPYACYMPSPFYIFFYNIQTKTCTRVHVKGFEEFKHNFTLLHTFLDFVEDTKFM
protein production: failed
